# Assay results: paper PMC13001094, “Cargo Recognition of Nesprin‑2 by the Dynein Adapter Bicaudal D2 for a Nuclear Positioning Pathway That Is Important for Brain Development” (Biochemistry, 2026)
# B1: His6-tagged human BicD2-CTD (aa 715–804) [human] / GST-tagged mouse Nesprin-2 (aa 6123–6421) [mouse] (parent complex)
# chain 1: YENEKAMVTETMMKLRNELKALKEDAATFSSLRAMFATRCDEYITQLDEMQRQLAAAEDEKKTLNSLLRMAIQQKLALTQRLELLELDHE
# chain 2: RLWQKFLDDYSRFEDWLKSAERTAACPNSSEVLYTNAKEELKRFEAFQRQIHERLTQLELINKQYRRLARENRTDTASKLKQMVHEGNQRWDNLQKRVTAILRRLRYFTNQREEFEGTRESILVWLTEMDLQLTNVEHFSESDAEDKMRQLNGFQQEITLNTNKIDQLIVFGEQLIQKSEPLDAVLIEDELEELHRYCQEVFGRVSRFHRRLTSHTPGLDDEKEASENETDIEDPREIQADSWRKRRESEEPTSPQSLCHLVPPALGHERSGCETPVSVDSIPLEWDHTGDVGGSSSHE
# Variants of: B1
# Assay: GST-pulldown, SDS-PAGE band intensity; n = 3; parent: 1; read off a plot
row,ratio to parent,Variant
1,~0.29,chain 2 H138A
2,~0.04,"chain 2 V124A, chain 2 L131A, chain 2 F139A"
3,~0.81,chain 2 E128A
4,~0.32,chain 2 Y197A

# Variants of: B1
# Assay: as above
# Remark: another data set of the same source
row,ratio to parent,Variant
1,~0.47,chain 1 E83C
2,~0.47,chain 1 R69A
